Binding signal (fold enrichment over IgG) data for 3 substances are collected here from patent US20230257746.

The target of this data set is T1, ZNF410 (Homo sapiens) (UniProt Q86VK4).
T1 sequence: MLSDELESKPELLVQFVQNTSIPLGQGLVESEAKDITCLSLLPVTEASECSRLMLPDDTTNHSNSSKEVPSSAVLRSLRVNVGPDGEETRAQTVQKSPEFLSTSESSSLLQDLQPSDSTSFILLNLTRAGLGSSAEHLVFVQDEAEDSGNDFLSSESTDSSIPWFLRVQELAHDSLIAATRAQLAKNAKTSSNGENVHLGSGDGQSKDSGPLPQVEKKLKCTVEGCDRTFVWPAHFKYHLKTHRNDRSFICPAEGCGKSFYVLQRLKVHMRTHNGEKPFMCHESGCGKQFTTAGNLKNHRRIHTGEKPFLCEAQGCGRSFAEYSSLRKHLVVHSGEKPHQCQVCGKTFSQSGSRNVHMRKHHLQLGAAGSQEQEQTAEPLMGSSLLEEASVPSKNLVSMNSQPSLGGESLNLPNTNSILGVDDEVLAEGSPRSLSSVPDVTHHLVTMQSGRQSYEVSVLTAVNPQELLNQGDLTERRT
Conditions: CUT&RUN with anti-HA in HUDEP-2 cells.
Substance NBPF19 intron site returned a binding signal (fold enrichment over IgG) of 11.

The substance CHD4 -6 kb enhancer (11 ZNF410 motifs) returned a binding signal (fold enrichment over IgG) of 78.

CHD4 promoter (16 ZNF410 motifs) displayed a binding signal (fold enrichment over IgG) of 48.
